This assay has as its target human ILT3 on cells (human) (UniProt Q8NHJ6). Put plainly: flow cytometry on THP1 cells, enumeration of the ILT3 antigen density with clone ZM4.1; unit not given. (In general: Flow cytometry measures light scatter and fluorescence of single cells or particles in a stream.)

Chain of human ILT3 on cells (human) (Q8NHJ6 22-448 D223G/Q414R): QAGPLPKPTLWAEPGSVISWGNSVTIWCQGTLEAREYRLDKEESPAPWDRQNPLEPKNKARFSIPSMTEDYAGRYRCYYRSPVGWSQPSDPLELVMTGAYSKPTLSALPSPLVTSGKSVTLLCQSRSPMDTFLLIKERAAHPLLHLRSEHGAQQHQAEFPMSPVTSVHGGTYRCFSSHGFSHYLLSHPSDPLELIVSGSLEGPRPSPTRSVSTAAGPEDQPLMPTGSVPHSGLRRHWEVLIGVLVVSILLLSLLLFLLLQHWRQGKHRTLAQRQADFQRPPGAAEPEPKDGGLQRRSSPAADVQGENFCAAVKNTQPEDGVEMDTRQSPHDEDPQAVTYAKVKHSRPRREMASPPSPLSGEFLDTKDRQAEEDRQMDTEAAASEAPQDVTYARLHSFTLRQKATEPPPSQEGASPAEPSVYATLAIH

“mouse anti-ILT3 monoclonal antibody, clone ZM4.1”: the Ag density came to 147000.

For the origin of these results see US20220227863A1.
